The source of these data is PMC6161613, “Lack of correlation between surface expression and currents in epileptogenic AB-calmodulin binding domain Kv7.2 potassium channel mutants” (Channels, 2018).

This experiment deals with T1, Recombinant rat brain calmodulin (rat, UniProt P0DP29 1-149).
T1 construct: calmodulin, rat, recombinant; also called CaM; source: E. coli BL21 DE3, purified
Briefly: pull-down; purified GST fusion proteins immobilised on GSH-Sepharose 4B beads; CaM (10 μg) added, 45 min, room temperature; 25 mM Hepes, 120 mM KCl, 5 mM NaCl, pH 7.5 with 5 mM EGTA (10 mM in the results text), no Ca2+; anti-CaM Western blot, band intensities quantified (n = 3). The note with it: both partners purified.

B1: GST-neurogranin (aa 1-78) (natural protein)
chain: MDCCTENACSKPDDDILDIPLDDPGANAAAAKIQASFRGHMARKKIKSGERGRKGPGPGGPGGAGVARGGAGGGPSGD
notes: neurogranin, aa 1-78, entry NP006167 as printed; also called Nrg; source: E. coli BL21 DE3, purified (GST fusion from pGEX-3X)
Regarding B1, the binding result was “binds”.
